Results published in a protein production outcome set (Wang et al. 2014).

Assay: label from the status in PepcDB records

| Sequence | protein production |
| --- | --- |
| MKILQILSRLYVADLNPALEFYEELLETPVAMRFEIPQTGVELAQISTILLIAGSEEALKPFRNTQATFLVDSLDKFKTFLEENGAEIIRGPSKVPTGRNMTVRHSDGSVIEYVEHSKIE | not failed |
| MEAIRVFGPKLGSRLSIRSHTTAFPACKLSRFPLTSFPGKHAHLVLLKATTIPLASGDKENNRKFEKLGPSEWGNQFLFAHVDLSEMDALEREIEALKPKVRDMFMSFKGMKSNKKNLFLIYLLVSLGLAHHFEDEIEESVKGCSQEMVEMMDGENDLYTVSIIFWVFRTYGHNISSDIFNRFKGHNGKFKECLATDAKGILSLYEAAHMGTTTDYILDEALSFTLSYLESLAANGTCKPNLVRRIRNALGLLQNKNVEILVAKEYIRFYEQEEDCDKTILEFSMLNLKFLQLHYLQELKLLTKWYKEQDFESKLPPYYRDRIVELHLATLAYINPKYSRVRIILTMIYTIQIILDDTCDRYASLREVESLAATIERWDHNDHAMEGLPDYLKSVAKFIFHTFQEFEREVSSESGGSYSLKATIEDCKRMMRSNLQLAKWAVTGHLPSFDEYLDVAGVEIAVYFTVAGILLGMENINKKEAYEWLIFRDKLVRAMSTKARLVNDLFGYKDDMRRGYVTNSINCYKKQYGVTEEEAFRKLHQMVADGDKMMNEEFLKPINVPHQVLKAVLDTLRAINICYDNEDGFTRLNGNLKNYITSMYVDL | failed |
| MSKKTDVVKEYTRIDSKRGLSITTGANRMKLFDRRVLELGRGEYGKLWNVIILGLLISFSYIVQGLLIAVILNGVFAGTPLHESRLYFAAVALLIVLRWIMIRENDRIAARTASNIAMSLRRRMYHKLYELGPGWIMTQKSGVIQATLVDGAEALQNYYGRFLPQVVVSIAAGISIVAILFYVDMTIGLVIGGMMIAALIQPLAIYKGVGKGIRIWFVAMPRLFAEYVDNIQGIVTLKSFNASQRQGKILYQRTNDLYDAEIGILRDEILWSVPPGLVAAICGTVAIIIGAIRMDAGALSAAGLLFVLLLVREALRPVTDLRQTIHFSFSGMGAAEGVLDILEATPLAAVTARPTPSSIPHSFAFEDVTFRYRKTDASAVENLSFKVEPGDKVALVGRSGSGKTTVTSLLMRYFDPQAGIIRLGGEDIRHIPADELHAMYSIVSQDTFLFHGTVRDNLLMAKPEASQEELERAARAAAAHKFIATLPDSYDTLIGERGVRLSGGERQRIAIARAILKDAPILILDEATSSVDVANETLIREAIAGLAHDRTTLLISHRLSAVRDADRIYVLEKGRLMEAGTHSKLVGCNGNYSALVRAEEECI | failed |
| MQLTSENYYSQEANKEYMSVSGYKDFAGTYGKMPCEFYGMEKLNGRWEDEKSTALLVGSYVDSYFEGSLDQFKKDNPEIFTQKGELKANFKQAEEIIARIERDEYFMKYMSGQKQVIMTGELFGAKWKIKMDSYIPGVAIVDLKVMASITDLKWVKDIGYLDFVRYWGYDIQGAVYQEIVRQNTGEKLPFFIAGATKQTEPDIRIIHVTDNYLQEALHMVEMNMPRILRVKNGEVEPDRCELCDCCRHNRVLKKPISIMDLTAGI | not failed |
| MKSVIFTEEKNLQRQNPLQKSEQQRRNFEMPSPPTTTSLSVTQTINGSHSFTIKGYSLAKGIGIGKHIASDTFTVGGYQWAIYFYPDGKNPEDNSAYVSVFIALASDGTDVRALFELSLLDQSGKGKHKVHSHFDRALESGPYTLKYRGSMWGYKRFFRRLMLETSDFLKDDCLKINCTVGVVVSEIDCPRLHSIHVPASDIGSHFGMLLENEDGSDITFNVSGEKFRAHRLVLAARSPVFESEFLDVTGEEDRDIEVTDMEPKVFKALLHYIYKDALIEDAESSSSSGSSVGPSASDTLAAKLLGAADKYKLPRLSLMCESVLCKDISVDSVANILALADRYNASALKSVCLKFAAENLIAVMRSDGFDYLREHCPSLQSELLKTVAGCEEELSGGGGKTRSVWGQFSDGGAETNGRQAQTWGDINGGAERSQSVWVEVVNANGSGRNNNDNNNSDDPMAELED | failed |
| MIISSLTNPNFKVGLPKVIAEVCDYLNTLDLNALENGRHDINDQIYMNVMEPETAEPSSKKAELHHEYLDVQVLIRGTENIEVGATYPNLSKYEDYNEADDYQLCADIDDKFTVTMKPKMFAVFYPYEPHKPCCVVNGKTEKIKKLVVKVPVKLI | not failed |
| MLPKRQLFLDRLNQALAWSQFSGVPGALLLIDLGLPAHLDGSPSLSPDAEENLEIIANRLQAYVRPHETLAHLNHHQFGLLLLDPDVQLRAEERAHGIQTLIRDRLAGFEGGAHIGIVPLTPETPATVLLQAAEAAAMTARSQQQGHLSLEASLEHHHHHH | not failed |
| MRPTARNLAPLLAVLCAPPALLAGCGHAEPRPRAAAQDRDGLSALWSYYRYTHVQGGRVAALDEGGVTTSEGQGYAMLRAVWMDDRATLDAVWRWTRENLAVREDRLLAWRWLDGKVKDRNAATDADQDVALALVLASRRFGDPRYLEAARPLLADIWAREVIRAGGRWLPTGGNWAPAERYPTLHVAYLAPYAYQVFADVDPERPWAELVESSYQVLRFLMIEKGLALPPERIWVDPRTGELLLARPGGQPDAFGYDAVPVYWRVALDARWFGRRGEAELRARLLRFPAEAFRDEGRLRERYTTSGRPLSELDGLPHLASVQALAQLEDPELARAMRASKLDALFDRALSGEATPYYLHNWLWFGRALEAGLLRRFDEPLAFLSSLDWGAFRDRFPLLPVALAVVLAPLARRLWPARAALVALALGLSIRYLAWRAGSTLNFVEPLGPALSLALLAAEAYALSTVALLVVQVGLRHRARPPEPPLGAGEPHPSVDVMVPIYSEPLDILDKTLAACAALRYPRKTIVVCDDSHREEVARLAAEHGARYLAGPRRHAKAGNLNAALARTDGELVVVFDTDHVPTAAFLERTVPCFRDPRLGVVQTPHHFYNPDVFQRALGAPASVPNEADLFNHAIQGGRDRWGGAFFVGSGAVFRREALASVGGFHLLSITEDIHTSQKLHAGGWRTRFVDEDLAAGLSAEDLASYVVQRRRWMLGCLQIFFRDNPLLQRGLPLRHRLGYLASLWYFFFPLARLVFFATPLAYLLFHLHPLFAELPVLLAYLVPHLVAAPLAASALVPGWPRLLWGGLYEGAVAFPLARATLDLLLPRRLGFKVTPKGVRSERRRFDLRTSAFTLAAAAVGLLAIAKGAAELWAFGIEVEAYAFNLAWAGANLVSVLLALLVAWERPQRREDERIRRRVPVRLEAPGLSLEASTLDLARGGAAVALPPGAALPAEVEVTFDGPEGLRLRARVAYVEPVDGAPRAGLAFQGVGAAEARALVRIAFSADGAHAGAHDGRSRWQAAMAWHLLAGLWRAVRPLRPRRRLGARRRTLRPLRLCGAGRACRALAVDASAGGLGLVAAGARGAIPAPGTALALLAPEGIGWARVVHARRILPGLWRLGLALQAEPVPGAEPHAYLAA | failed |
| MGSTTGSMLTAISDTHGTDNHRLTGRTLDAVREADHVLHAGDFMTEQVLDAIDAESDELTGVVGNNDRPAVRARLSDVATVSWEELTIVVVHGHEHTETALGMLARQENADIVVVGHSHKPVLTDFGGWTLVNPGSYADPRRYQPAHAELDVMAGDVRVRLRSPDGTPISTTIVERLEHHHHHH | failed |
| VFEQELENGLRLFIIPKPGFQKTFVTYTTQFGSLDNQFKPLGQDQFVTVPDGVAHFLEHKLFEKEEEDLFTAFAEDNAQANAFTSFDRTSYLFSATDNIENNIKRLLTMVETPYFTKETVDKEKGIIAEEIKMYQEQPGYKLMFNTLRAMYQRHPIRVDIAGSVESIYDITKDDLYLCYETFYHPSNMVLFVVGDVNPEEICRIVKQH | failed |
| MSKLKTIALTASGLSVCPGFLYAQNTSSHQIGLAIMRLNSSILDLPPTKQYFQSGSLWSELRQGFRMGEVNPELVRRHESKFIASHSYFNRVINRSRPYMYHIANEVKKRNMPAEAALLPFIESAFVTKAKSHVGASGLWQFMPATGRHYGLEKTPVYDGRHDIYAATDAALNYLQYLYGLFGDWPLAFAAYNWGEGNVGRAINRARAQGLEPTYENLRMPNETRNYVPKLLAVRNIIAAPQSFGMNISDIDNKPYFQAVEPDRPLDNEAIARLAGITQSELLALNPAFNVPAFIPKSKRKLLLPVASVQTFQSNYLNAAPDSLFSWEVYTPAAKTSLSDISTATGMSIADIKRLNNLNGNLVNAGRSILVAKNGKTLQTASESVVSIDIDNTPNTYRSNMPAGTVNVGIARIRPAAAQTADITVAPLPQKTVRTEPDPLVRIAEPALATAAAQPQTEKQTAMPSETQTATLAQIVPQNDMQAADELMQLVARNNLRRQAEETISAVIGTPDTVAEHNISSSPQHTVAADGKRRVRLETRVAKAADGEAEISPLHASIHRVVEGDTLFNIAKRYNVSVADLIVANNIKGNTIQKGQVLRLAQAAPAQTRIEKVSYTARKGDTFKSIAARFNIHIDDIRRLNPNLNTINPGQRVKLIGS | failed |
| MEDPLGRLEWIKFLSAFYDKEDKAENYFNQQVSKVMATENKVSSLKKPKVAFGMVDNGKVYIPAKNSYAAKMVDMAGGDYIFKDLNNKSGYITLEDFYSKSKDADVLIYSSSKEYTPSLKSMLSAAPILKTIKPVKNKKVWCFGKDYYQAIDKTDEIIEDLASIFHPESFKGYKIKHYSHLEHHHHHH | not failed |
| MKKIAVTYGEEKYSYADIIKYVNYYSEFLDISKGDRVALMMENRPESIFSFFSIWAKKGIALSLDAGYTVEQLAFVLNDSKPKYIFVSNKIKEVVEKANEQVGNIVKIMVVDEITLPTDYVIKQEEYENDSNEDLAVIVYTSGTTGNPKGVMITYELEHHHHHH | not failed |
| GQRQPSEQELLFRQQALLLEQQRIHQLRNYQASMEAAGIPVSFGGHRPLSRAQSSPASATFPVSVQEPPTKPRFTTGLVYDTLMLKHQCTCGSSSSHPEHAGRIQSIWSRLQETGLRGKCECIRGRKATLEELQTVHSEAHTLLYGTNPLNRQKLDSKKLLGSLASVFVRLPCGGVGVDSDTIWNEVHSAGAARLAVGCVVELVFKVATGELKNGFAVVRPPGHHAEESTPMGFCYFNSVAVAAKLLQQRLSVSKILIVDWDVHHGNGTQQAFYSDPSVLYMSLHRYDDGNFFPGSGAPDEVGTGPGVGFNVNMAFTGGLDPPMGDAEYLAAFRTVVMPIASEFAPDVVLVSSGFDAVEGHPTPLGGYNLSARCFGYLTKQLMGLAGGRIVLALEGGHDLTAICDASEACVSALLGNELDPLPEKVLQQRPNANAVRSMEKVMEIHSKYWRCLQRTTSTAGRSLIEAQTCENEEAETVTAMASLSVGVKPA | failed |
| MNLPKVKMLQVSKCLIGLAVMMLQSCDVADNRRDMLCGNWESVEGKPDVLIYKEGEAYKVTVFRRSGLRRKLKPETYLLQEENGNLFMNTGFRIDVSYNEATDVLTFSPNGDYVRVKPQPGHPTEE | failed |
| MDITSLINANVICLDLTSTSKEDILQEMVQILDDAGKLSNKTQFLSDVWAREEIGNTGFEDGIAIPHAKSSAVLTPSVAIGISRTGIDYGAEDGEPSDIFFMLASTDGDDNQHIEALAQISSRLIEDGFTNKLKKADSKEEILDLFTDIIQPNTESTDIENAPSQIEKSELTRKLGRTKEHLLFGTSHMIPFIVAGGVLLSLSVMISGQGAVPTEGILADIAQMGIAGLTLFTAVLGGYIAYSIADKPGLAPGMIGSWIAVQQYNTGFLGAIIIGFFAGFVVRSLKKIKLPESMASLGSIFIYPLVGTFLTCAAVMWVIGAPISNAMAALNEWLASMAGSGKIALGAILGAMAAFDMGGPINKVATLFAQTQVNTQPWLMGGVGIAICTPPLGMALATFLSPKKFKRDEREAGKAAGIMGMIGITEGAIPFAAADPARVIPAIVAGGIVGNITGFVFNVLNHAPWGGWIVLPVVDGKIGYIIGTLLGAFTTAAIVILLKKNAVEDDEHTQQKFTFESVKNEGEADVLAVTACPSGVAHTFLAAKSLEKAAHKLGIKIKVETQGADGINNRITPLDIKNAKLVIFAHDVAIKEPLRFKGMRTLDIATKDAMYSAEQLLNDNLTKHHKRFSKA | failed |
| VLTMPLVTSISQLNEPITLVSYTMGNVNGVPVNNVRKEHFTTWALVLSQYLSEVKASVGTKLEDTVTFVVRYDQPETILNSWRIEWQEKQYDIVKLTPDTAKKQWTTIIGKPVANK | not failed |
